From publication PMC5458211, “Mitochondrial VDAC1-based peptides: Attacking oncogenic properties in glioblastoma” (Oncotarget, 2017)
Non-standard residues stand in square brackets, D forms with d. No end group written: not given here.

Target: T1, Hexokinase II (HK-II), purified (UniProt P52789 1-917, fluorescently labeled using the NanoTemper protein-labeling Kit BLUE)
T1 construct: hexokinase II (HK-II)
T1 sequence (looked up): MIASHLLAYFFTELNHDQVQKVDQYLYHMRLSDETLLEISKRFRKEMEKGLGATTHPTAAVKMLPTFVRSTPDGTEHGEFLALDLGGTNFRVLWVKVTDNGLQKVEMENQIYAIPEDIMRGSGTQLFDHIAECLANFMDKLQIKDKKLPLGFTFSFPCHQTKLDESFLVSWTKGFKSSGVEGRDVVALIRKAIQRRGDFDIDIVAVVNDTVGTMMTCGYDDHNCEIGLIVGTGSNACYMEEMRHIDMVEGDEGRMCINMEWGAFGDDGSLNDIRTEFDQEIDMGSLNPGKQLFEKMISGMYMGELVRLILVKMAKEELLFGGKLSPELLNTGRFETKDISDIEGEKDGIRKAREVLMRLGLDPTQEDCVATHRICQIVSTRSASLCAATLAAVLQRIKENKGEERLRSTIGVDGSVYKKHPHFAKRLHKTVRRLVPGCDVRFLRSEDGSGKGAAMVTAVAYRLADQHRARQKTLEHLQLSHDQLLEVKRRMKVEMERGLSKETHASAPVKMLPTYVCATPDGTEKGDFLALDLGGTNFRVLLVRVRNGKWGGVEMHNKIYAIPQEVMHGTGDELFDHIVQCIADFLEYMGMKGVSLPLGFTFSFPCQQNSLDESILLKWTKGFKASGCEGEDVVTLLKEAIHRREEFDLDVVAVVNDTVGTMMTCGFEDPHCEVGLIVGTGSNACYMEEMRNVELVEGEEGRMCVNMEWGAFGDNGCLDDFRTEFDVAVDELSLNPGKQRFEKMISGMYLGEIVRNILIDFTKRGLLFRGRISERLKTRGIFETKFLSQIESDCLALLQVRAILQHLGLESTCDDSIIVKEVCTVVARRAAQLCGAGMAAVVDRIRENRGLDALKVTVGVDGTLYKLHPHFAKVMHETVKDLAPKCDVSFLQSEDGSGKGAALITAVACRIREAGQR
Experiment: MST; HK-II (100 nM), fluorescently labelled (NanoTemper Kit BLUE), incubated with Tf-D-LP4 (1-100 μM) for 20 min; MST-grade glass capillaries, Monolith-NT115
Settings: both partners purified

Kd: 16.6 µM
B1: Tf-D-LP4 (peptide)
peptide: HAIYPRHSWTWE[dK][dK][dL][dE][dT][dA][dV][dN][dL][dA][dW][dT][dA]G[dN][dS][dN]KWTWK
notes: L-amino acids; amino acids added to form a loop-shaped tryptophan zipper (N-terminal half); amino acids added to form a loop-shaped tryptophan zipper (C-terminal half); 34 residues in all; the VDAC1-derived stretch is made of D-amino acids, the rest of L-amino acids; also called VDAC1-based peptide; Tf-D-LP4 peptide; source: synthetic peptide (GL Biochem, Shanghai, >95% purity), dissolved in DMSO
